Tested on: Escherichia coli TOP10
Test: shrunken log2 fold change of peptide-encoding DNA abundance (4.5 h post-induction vs induction); higher = less antimicrobial activity (less host growth inhibition)
Settings: time post-induction: 4.5 h; library: site-saturation at positions 5, 18, 19, 20
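Further: peptides expressed intracellularly from a pBAD plasmid library in pooled LB shake-flask culture, induced with 0.3% L-arabinose, DNA abundance read by NGS, three biological replicates, DESeq2 with apeglm shrinkage.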

Row | Sequence | shrunken log2 fold change
1 | RRIRERPPRLPRPRPRPVGAPRP | 0.392
2 | RRIRERPPRLPRPRPRPVGWPRP | 0.888
3 | RRIRERPPRLPRPRPRPVICPRP | -0.72
4 | RRIRERPPRLPRPRPRPVLAPRP | 0.252
5 | RRIRERPPRLPRPRPRPVLFPRP | -0.141
6 | RRIRERPPRLPRPRPRPVLLPRP | -0.388
7 | RRIRERPPRLPRPRPRPVLTPRP | -0.126
8 | RRIRERPPRLPRPRPRPVMNPRP | -0.0808
9 | RRIRERPPRLPRPRPRPVNRPRP | -0.294
10 | RRIRERPPRLPRPRPRPVQAPRP | 0.014
11 | RRIRERPPRLPRPRPRPVQGPRP | 0.166
12 | RRIRERPPRLPRPRPRPVQVPRP | -0.227
13 | RRIRERPPRLPRPRPRPVQYPRP | -0.418
14 | RRIRERPPRLPRPRPRPVRSPRP | 0.0119
15 | RRIRERPPRLPRPRPRPVSRPRP | 0.23
16 | RRIRERPPRLPRPRPRPVSTPRP | -0.199
17 | RRIRERPPRLPRPRPRPVSYPRP | 0.0843
18 | RRIRERPPRLPRPRPRPVVSPRP | -0.0681
19 | RRIRERPPRLPRPRPRPVVTPRP | -0.95
20 | RRIRERPPRLPRPRPRPVWSPRP | 0.158
21 | RRIRERPPRLPRPRPRPVWWPRP | 0.149
22 | RRIRERPPRLPRPRPRPVYLPRP | -0.267
23 | RRIRERPPRLPRPRPRPWCWPRP | 0.315
24 | RRIRERPPRLPRPRPRPWDVPRP | 0.0649
25 | RRIRERPPRLPRPRPRPWEYPRP | 0.0155

Row | Sequence | shrunken log2 fold change
26 | RRIRERPPRLPRPRPRPWIFPRP | -0.101
27 | RRIRERPPRLPRPRPRPWIPPRP | 0.0136
28 | RRIRERPPRLPRPRPRPWIWPRP | 0.164
29 | RRIRERPPRLPRPRPRPWLDPRP | 0.121
30 | RRIRERPPRLPRPRPRPWLRPRP | 0.0269
31 | RRIRERPPRLPRPRPRPWMDPRP | -0.101
32 | RRIRERPPRLPRPRPRPWMLPRP | -0.234
33 | RRIRERPPRLPRPRPRPWMRPRP | 0.079
34 | RRIRERPPRLPRPRPRPWNAPRP | 0.0455
35 | RRIRERPPRLPRPRPRPWNYPRP | -0.00131
36 | RRIRERPPRLPRPRPRPWPPPRP | 0.045
37 | RRIRERPPRLPRPRPRPWPQPRP | -0.0216
38 | RRIRERPPRLPRPRPRPWSLPRP | -0.0112
39 | RRIRERPPRLPRPRPRPWTSPRP | -0.028
40 | RRIRERPPRLPRPRPRPWVFPRP | -0.0105
41 | RRIRERPPRLPRPRPRPWWNPRP | -0.0135
42 | RRIRERPPRLPRPRPRPYALPRP | -0.000856
43 | RRIRERPPRLPRPRPRPYCAPRP | -0.533
44 | RRIRERPPRLPRPRPRPYCLPRP | -0.123
45 | RRIRERPPRLPRPRPRPYCNPRP | -0.143
46 | RRIRERPPRLPRPRPRPYDSPRP | -0.0594
47 | RRIRERPPRLPRPRPRPYFQPRP | -0.967
48 | RRIRERPPRLPRPRPRPYFRPRP | -0.622
49 | RRIRERPPRLPRPRPRPYGVPRP | -0.128
50 | RRIRERPPRLPRPRPRPYISPRP | -0.977

Row | Sequence | shrunken log2 fold change
51 | RRIRERPPRLPRPRPRPYKNPRP | -0.756
52 | RRIRERPPRLPRPRPRPYMLPRP | -1.42
53 | RRIRERPPRLPRPRPRPYPFPRP | -0.52
54 | RRIRERPPRLPRPRPRPYQKPRP | -0.0207
55 | RRIRERPPRLPRPRPRPYSPPRP | -0.0774
56 | RRIRERPPRLPRPRPRPYVDPRP | -0.0122
57 | RRIRERPPRLPRPRPRPYVKPRP | 0.04
58 | RRIRERPPRLPRPRPRPYWCPRP | -1.14
59 | RRIRERPPRLPRPRPRPYWQPRP | -0.172
60 | RRIRERPPRLPRPRPRPYWSPRP | -0.568
61 | RRIRERPPRLPRPRPRPYYRPRP | -0.165
62 | RRIRFRPPRLPRPRPRPACCPRP | 0.229
63 | RRIRFRPPRLPRPRPRPACQPRP | -0.0497
64 | RRIRFRPPRLPRPRPRPACRPRP | 0.192
65 | RRIRFRPPRLPRPRPRPADIPRP | 0.131
66 | RRIRFRPPRLPRPRPRPAERPRP | 0.0603
67 | RRIRFRPPRLPRPRPRPAGSPRP | -0.139
68 | RRIRFRPPRLPRPRPRPAGWPRP | 0.674
69 | RRIRFRPPRLPRPRPRPAIKPRP | -0.328
70 | RRIRFRPPRLPRPRPRPAKFPRP | -0.265
71 | RRIRFRPPRLPRPRPRPAKYPRP | -0.381
72 | RRIRFRPPRLPRPRPRPALDPRP | 0.436
73 | RRIRFRPPRLPRPRPRPAPCPRP | 0.294
74 | RRIRFRPPRLPRPRPRPAPIPRP | 0.108
75 | RRIRFRPPRLPRPRPRPAQRPRP | 0.302

Row | Sequence | shrunken log2 fold change
76 | RRIRFRPPRLPRPRPRPARCPRP | 0.44
77 | RRIRFRPPRLPRPRPRPARIPRP | -0.0549
78 | RRIRFRPPRLPRPRPRPARPPRP | 0.287
79 | RRIRFRPPRLPRPRPRPATEPRP | 0.0616
80 | RRIRFRPPRLPRPRPRPATGPRP | 1.21
81 | RRIRFRPPRLPRPRPRPATPPRP | 0.315
82 | RRIRFRPPRLPRPRPRPAVYPRP | -0.35
83 | RRIRFRPPRLPRPRPRPAWPPRP | 0.268
84 | RRIRFRPPRLPRPRPRPAYKPRP | -0.314
85 | RRIRFRPPRLPRPRPRPCAFPRP | -0.393
86 | RRIRFRPPRLPRPRPRPCDCPRP | -0.0184
87 | RRIRFRPPRLPRPRPRPCEWPRP | 0.134
88 | RRIRFRPPRLPRPRPRPCEYPRP | -0.000476
89 | RRIRFRPPRLPRPRPRPCFMPRP | -0.213
90 | RRIRFRPPRLPRPRPRPCFSPRP | -0.759
91 | RRIRFRPPRLPRPRPRPCGAPRP | 0.0828
92 | RRIRFRPPRLPRPRPRPCGCPRP | -0.0484
93 | RRIRFRPPRLPRPRPRPCGLPRP | -0.00916
94 | RRIRFRPPRLPRPRPRPCHPPRP | 1.35
95 | RRIRFRPPRLPRPRPRPCHSPRP | -0.0231
96 | RRIRFRPPRLPRPRPRPCIEPRP | -0.422
97 | RRIRFRPPRLPRPRPRPCIFPRP | -0.361
98 | RRIRFRPPRLPRPRPRPCLLPRP | -1.19
99 | RRIRFRPPRLPRPRPRPCLNPRP | -0.244
100 | RRIRFRPPRLPRPRPRPCLVPRP | -0.208

Row | Sequence | shrunken log2 fold change
101 | RRIRFRPPRLPRPRPRPCMDPRP | -0.336
102 | RRIRFRPPRLPRPRPRPCMVPRP | 1.01
103 | RRIRFRPPRLPRPRPRPCNFPRP | -0.183
104 | RRIRFRPPRLPRPRPRPCQCPRP | -0.035
105 | RRIRFRPPRLPRPRPRPCQWPRP | 0.0155
106 | RRIRFRPPRLPRPRPRPCRHPRP | 0.0121
107 | RRIRFRPPRLPRPRPRPCTLPRP | -0.471
108 | RRIRFRPPRLPRPRPRPCVCPRP | 0.143
109 | RRIRFRPPRLPRPRPRPCVKPRP | -0.123
110 | RRIRFRPPRLPRPRPRPCVLPRP | -0.401
111 | RRIRFRPPRLPRPRPRPCVYPRP | -0.0699
112 | RRIRFRPPRLPRPRPRPCYAPRP | -0.618
113 | RRIRFRPPRLPRPRPRPDAQPRP | 0.483
114 | RRIRFRPPRLPRPRPRPDCGPRP | -0.107
115 | RRIRFRPPRLPRPRPRPDEWPRP | 0.0983
116 | RRIRFRPPRLPRPRPRPDGMPRP | -0.0385
117 | RRIRFRPPRLPRPRPRPDHFPRP | -0.331
118 | RRIRFRPPRLPRPRPRPDHVPRP | 0.0266
119 | RRIRFRPPRLPRPRPRPDINPRP | -0.302
120 | RRIRFRPPRLPRPRPRPDKIPRP | -0.0546
121 | RRIRFRPPRLPRPRPRPDKVPRP | -0.281
122 | RRIRFRPPRLPRPRPRPDLVPRP | -0.0465
123 | RRIRFRPPRLPRPRPRPDMEPRP | -0.16
124 | RRIRFRPPRLPRPRPRPDMKPRP | -0.25
125 | RRIRFRPPRLPRPRPRPDNCPRP | -0.0284

Row | Sequence | shrunken log2 fold change
126 | RRIRFRPPRLPRPRPRPDNHPRP | -0.232
127 | RRIRFRPPRLPRPRPRPDNMPRP | -0.748
128 | RRIRFRPPRLPRPRPRPDNWPRP | -0.25
129 | RRIRFRPPRLPRPRPRPDPKPRP | 0.117
130 | RRIRFRPPRLPRPRPRPDPNPRP | -0.072
131 | RRIRFRPPRLPRPRPRPDPYPRP | -0.437
132 | RRIRFRPPRLPRPRPRPDQVPRP | 0.0246
133 | RRIRFRPPRLPRPRPRPDRMPRP | -0.00758
134 | RRIRFRPPRLPRPRPRPDSCPRP | -0.011
135 | RRIRFRPPRLPRPRPRPDSDPRP | -0.0137
136 | RRIRFRPPRLPRPRPRPDSNPRP | -0.758
137 | RRIRFRPPRLPRPRPRPDSSPRP | -0.055
138 | RRIRFRPPRLPRPRPRPDTLPRP | -0.0946
139 | RRIRFRPPRLPRPRPRPDVEPRP | 0.00816
140 | RRIRFRPPRLPRPRPRPDVWPRP | 0.128
141 | RRIRFRPPRLPRPRPRPDWGPRP | 0.00855
142 | RRIRFRPPRLPRPRPRPDYLPRP | -0.159
143 | RRIRFRPPRLPRPRPRPEANPRP | 0.666
144 | RRIRFRPPRLPRPRPRPEARPRP | -0.137
145 | RRIRFRPPRLPRPRPRPECDPRP | 0.248
146 | RRIRFRPPRLPRPRPRPECEPRP | 0.639
147 | RRIRFRPPRLPRPRPRPEDHPRP | 0.000834
148 | RRIRFRPPRLPRPRPRPEDIPRP | 0.0107
149 | RRIRFRPPRLPRPRPRPEDVPRP | -0.0294
150 | RRIRFRPPRLPRPRPRPEEWPRP | -0.0208

Source: the supplement of paper PMC9112550, “Optimization of the antimicrobial peptide Bac7 by deep mutational scanning” (BMC Biology, 2022)
